Test [1] addresses pm3 (human, sulfated tyrosine at Y17). Put plainly: ELISA on coated peptide [cont.]. Summed up:
(§1)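 Peptides coated at 500 ng/mL in carbonate/bicarbonate buffer; anti-CCR8 mAbs applied at 1 μg/mL and a 1/10 dilution for 90 min at room temperature. After washing, TMB substrate was developed for 15 min and OD read as a measure of mAb reactivity.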
(In general: An ELISA detects its analyte on a solid surface through an enzyme-linked reagent.)

For test [2], the target named is pm2 (human, sulfated tyrosine(s) among Tyr 15, Tyr 16, Tyr 17; marked only by underlining, lost in the text). Put plainly: ELISA on coated peptide [cont.]. Summed up:
as §1

For test [3], the target named is pm6 (human, sulfated tyrosines at Y16 and Y17). Put plainly: ELISA on coated peptide [cont.]. Summed up: as §1
Test [4] concerns the target pm8 (human, sulfated tyrosines at Y15, Y16 and Y17). The experiment in a line: ELISA on coated peptide [cont.]. Summed up:
as §1

The target of test [5] is T1, pwt1 (human).
T1 construct: also called unmodified peptide
Put plainly: ELISA on coated peptide [cont.]. Summed up: as §1

For test [6], the target named is T2, pm4 (human, sulfated tyrosine(s) among Tyr 15, Tyr 16, Tyr 17; marked only by underlining, lost in the text). The experiment in a line: ELISA on coated peptide [cont.]. The method in brief: as §1
The target of test [7] is T3, pm1 (human, sulfated tyrosine(s) among Tyr 15, Tyr 16, Tyr 17; marked only by underlining, lost in the text). Put plainly: ELISA on coated peptide [cont.]. The method in brief:
as §1

The target of test [8] is pm5 (human, sulfated tyrosines at Y15 and Y17). Put plainly: ELISA on coated peptide [cont.]. The method in brief: as §1
The target in test [9] is T4, human CCR8 (human, UniProt P51685 1-355). The experiment in a line: cell-based or functional assay.
Test [10] deals with T4, human CCR8. Put plainly: cell-based or functional assay. The source holds these as a separate data set.
Test [11] addresses T4, human CCR8. The experiment in a line: flow cytometry, HUT78 cells (native CCR8). As to the method:
The same staining protocol was applied on human CCR8 transfected CHO cell line versus wild type CHO cell line, cutaneous T cell lymphoma HUT78 cell line and human activated T cell model.
(§2) Briefly, 1·10⁵ cells per well in a 96 well plate were incubated with a dilution of unconjugated anti-CCR8 mAb at 10 μg/mL then diluted at 1/3.33, 4 dilution points (during 30 min at 4° C.). […] To determine EC50 value, 8 concentrations of anti-CCR8 mAb were tested. Unbound antibodies were washed away with PBS (Invitrogen by Thermofisher Scientific, Illkirch-Graffenstaden, France) supplemented by 2% Fetal Bovine Serum (Invitrogen by Thermofisher Scientific, Illkirch-Graffenstaden, France) and 2 mM EDTA (Invitrogen by Thermofisher Scientific, Illkirch-Graffenstaden, France). Subsequently, cells are centrifuged (5 min at 400 g) and bound antibody is detected with F(ab′)₂-Goat anti-Mouse IgG (H+L) Cross-Adsorbed Secondary Antibody, Alexa Fluor 488 (dilution 1/500) (Invitrogen by Thermofisher Scientific, Illkirch-Graffenstaden, France) or with F(ab′)₂-Goat anti-Human IgG Fc Secondary Antibody, PE (Invitrogen by Thermofisher Scientific, Illkirch-Graffenstaden, France) (dilution 1/1000) at 4° C. for 30 min. Detection reagent is washed away and cells are centrifuged (5 min at 400 g) and resuspended in 30 μL PBS. Bound detection antibody is quantified on a MacsQuant16 (Miltenyi, Gladbach, Germany) (B1 or B2 channel, 5000 events per acquisition).
A general note: In flow cytometry, cells or beads pass a laser one at a time.

The target of test [12] is CCR8 SNAP-tag (human, UniProt P51685 1-355, SNAP-tag labelled with Lumi4-Terbium). The experiment in a line: cell-based or functional assay.
Test [13] deals with T4, human CCR8. The experiment in a line: competition HTRF on HEK-293 cells with hCCR8; blocked ligand CCL1-AF647 [cont.].
Test [14] deals with T4, human CCR8. The experiment in a line: cell-based or functional assay. The source holds these as a separate data set.
The target in test [15] is T4, human CCR8. The experiment in a line: flow cytometry, hCCR8 transfected CHOK1 cells.
Test [16] addresses T4, human CCR8. Put plainly: competition flow cytometry on hCCR8 transfected CHO cells; blocked ligand CCL1-AF647.
Test [17] deals with T4, human CCR8. The experiment in a line: competition flow cytometry on hCCR8 transfected CHO cells; blocked ligand CCL1-AF647 [cont.].
Test [18] concerns the target T4, human CCR8. Put plainly: flow cytometry, human activated T cells pre-incubated with 200 nM hCCL1. As to the method:
as §2
(§3) Binding characteristics of anti-CCR8 mAb cellular reactivity was further investigated by testing their binding to activated T cells.

For test [19], the target named is T4, human CCR8. The experiment in a line: flow cytometry, human activated T cells. As to the method: as §2, §3
Test [20] concerns the target T2, pm4. Put plainly: ELISA on coated peptide. On the procedure: (§4) The specific binding properties of antibodies were evaluated by ELISA with coated CCR8 related peptides (500 ng/mL) in carbonate/bicarbonate buffer. Different peptides were used as described in Table 1 (see Example 1). Each anti-CCR8 mAb was tested at 1 μg/mL then diluted at 1/10. After an incubation at room temperature during 90 min, unbound mAbs were removed by washings. […] After washings, 3,3′,5,5′-tetramethylbenzidine (TMB) (Interchim, Montlugon, France) was added for 15 min. Then the optical density (OD) was determined by using a multiplate reader (Tecan, Lyon, France) and correlated with mAb reactivity on the panel of coated peptides.

The target of test [21] is T3, pm1. Put plainly: ELISA on coated peptide. On the procedure:
as §4

Where “and” joins values, the source holds several entries; their conditions need not be identical. Equal values may be shown once.

Sequence of pm8 (human, sulfated tyrosines at Y15, Y16 and Y17) (peptide, as listed by the source): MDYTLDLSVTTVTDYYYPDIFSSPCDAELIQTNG
Sequence of pm5 (human, sulfated tyrosines at Y15 and Y17) (peptide, as listed by the source): as above
Sequence of pm6 (human, sulfated tyrosines at Y16 and Y17) (peptide, as listed by the source): as above
Sequence of pm3 (human, sulfated tyrosine at Y17) (peptide, as listed by the source): as above
T3 sequence (peptide, as listed by the source): as above
T2 sequence (peptide, as listed by the source): as above
Sequence of pm2 (human, sulfated tyrosine(s) among Tyr 15, Tyr 16, Tyr 17; marked only by underlining, lost in the text) (peptide, as listed by the source): as above
T1 sequence (peptide, as listed by the source): as above

B1: 3-80 (antibody, human IgG1, kappa, V domains shown)
VH: QVQLVQSGPEVVKPGASVKVSCKTSGYTFTEYTIHWVRQAPGQSLEWVGGINPNNGNTRYDQKFQGRVTITRDKSASTAYMELRSLTSEDTAVYYCARVARSSGSGPYAMDYWGQGTTVTVSS
VL: DVVMTQSPLSLPVTLGDQASISCRCSQSLLHTNGDTYLHWYLQRPGQSPRLLIYKVSNRFSGVPDRFSGSGSGTDFTLKISRVEAEDVGVYFCSQSTHVPYTFGGGTKVEIKR
notes: humanized, human IgG1 kappa
For B1, the binding result in test [1] is listed as “binds”. Besides, the binding result in test [2] is reported as “binds”. In test [3], the binding result is listed as “binds”. Also, the binding result in [4] is “binds”. The binding result in test [5] is “binds”. Moreover, the binding result in test [6] is given as “binds”. The binding result in test [7] is “binds”. For the same molecule, the binding result in test [8] was “binds”. For the same molecule, in test [9], the “ADCC % Max lysis, NK cells Donor 3” value worked out at 15%; the “ADCC % Max lysis, NK cells Donor 4” value is 16%; the “ADCC EC50, NK cells Donor 3” value was 0.505 nM; the “ADCC EC50, NK cells Donor 4” value is 0.573 nM. Besides, in [10], the “IC50 (Gi2 BRET, pH 6.5)” value is 0.011 µg/ml and 0.072 nM; the “IC50 (Gi2 BRET, pH 7.4)” value is 0.022 µg/ml and 0.148 nM. For the same molecule, in test [11], the “% of labelled cells” value is 96%. In addition, in test [12], the “% of internalization at 1 µg/ml mAb (HTRF)” value worked out at 44% and the “% of internalization at 10 µg/ml mAb (HTRF)” value amounted to 29%. In addition, the “IC50 (read off the curve)” value in [13] is approximately 0.03 µg/mL. In test [14], the “hCCL1 (100 nM) residual response, Protocol #2, mAb 0.08 µg/mL” value is 67%; the “hCCL1 (100 nM) residual response, Protocol #2, mAb 0.4 µg/mL” value was determined as 55%; the “hCCL1 (100 nM) residual response, Protocol #2, mAb 10 µg/mL” value came out at 32%; the “hCCL1 (100 nM) residual response, Protocol #3, mAb 0.05 µg/mL” value is 86%. In test [14], the “hCCL1 (100 nM) residual response, Protocol #3, mAb 0.5 µg/mL” value was found to be 60% and the “hCCL1 (100 nM) residual response, Protocol #3, mAb 5 µg/mL” value came to 42%.

B2: Ref #1 (antibody, human IgG1, V domains shown)
VH: EVQLLESGGGLVQPGGSLRLSCAASGFTFSSYGMHWVRQAPGKGLEWVSAINWNGGSTGYADSVKGRFTISRDNSKNTLYLQMNSLRAEDTAVYYCARGHHSGYDGRFFDYWGQGTLVTVSS
VL: QSVLTQPPSVSGAPGQRVTISCTGSSSNIGAGYNVHWYQQLPGTAPKLLIYTNNRRPSGVPDRFSGSKSGTSASLAISGLRSEDEADYYCAAWDASLSGWVFGGGTKLTVL
notes: benchmark from WO 2021/260210; human IgG1, produced in CHO; also called TPP-21360
Regarding B2, in test [15], the “% positive cells” value was 75.1% and the “MFI fold change to isotype ctrl” value came to 8.7 fold. Further, in [12], the “% of internalization at 1 µg/ml mAb (HTRF)” value stood at 126% and the “% of internalization at 10 µg/ml mAb (HTRF)” value turned out to be 111%. In addition, the “IC50 (read off the curve)” value in test [16] was approximately 0.7 µg/mL.

B3: 3-5 (antibody, V domains shown)
VH: EVQLLESGGGLVQPKGSLKLSCAASGFTFNPYAMNWVRQAPGRGLEWVARIRSKSNNYATYYADSVKDRFTISRDDSQDMLYLQMNNLKTEDTAMYYCVRGREAYYRYDGDYYAMDYWGQGTSVTVSS
VL: DIVMTQAAPSVPVTPGESVSISCRSSKSLLHSNGNTYLYWFLQRPGQSPQLLIYRMSNLASGVPDRFSGSGSGTAFTLRISRVEAEDVGVYYCMQHLEYPFTFGSGTKLEIK
In the case of B3, in test [1], the binding result is recorded as “binds”. For the same molecule, in [3], the binding result was “binds”. The binding result in test [4] is “binds”. The binding result in test [8] is recorded as “binds”. Besides, in [10], the “IC50 (Gi2 BRET, pH 6.5)” value was 0.021 µg/ml and 0.143 nM; the “IC50 (Gi2 BRET, pH 7.4)” value was 0.163 nM and 0.024 µg/ml. In addition, in [15], the “% positive cells” value amounted to 72.8% and the “MFI fold change to isotype ctrl” value amounted to 6.32 fold. Also, the “IC50 (read off the curve)” value in [17] is approximately 1 µg/mL. Besides, in [14], the “hCCL1 (100 nM) residual response, Protocol #2, mAb 0.08 µg/mL” value was found to be 81%; the “hCCL1 (100 nM) residual response, Protocol #2, mAb 0.4 µg/mL” value turned out to be 69%; the “hCCL1 (100 nM) residual response, Protocol #2, mAb 10 µg/mL” value was 44%; the “hCCL1 (100 nM) residual response, Protocol #3, mAb 0.05 µg/mL” value worked out at 77%. Moreover, in [14], the “hCCL1 (100 nM) residual response, Protocol #3, mAb 0.5 µg/mL” value stood at 57% and the “hCCL1 (100 nM) residual response, Protocol #3, mAb 5 µg/mL” value was 49%.

B4: 3-79 (antibody, human IgG1, kappa, V domains shown)
VH: EVQLLESGGGLVQPGGSLRLSCAASGFTFNAYAMNWVRQAPGKGLEWVARIRSKSNDYATYYGDSVKGRFTISRDNSKNTLYLQMNSLRAEDTAVYYCVRGREAYYRYDGGYYAMDVWGQGTTVTVSS
VL: DIVMTQSPLSLPVTPGEPASISCRSSKSLLHSNGNTYLYWFLQKPGQSPQLLIYRVSNLASGVPDRFSGSGSGTDFTLKISRVEAEDVGVYYCMQHREYPFTFGQGTKLEIKR
notes: humanized, human IgG1 kappa
B4: the binding result in test [1] is listed as “binds”. The binding result in test [3] is “binds”. Moreover, the binding result in [4] is “binds”. In addition, in test [8], the binding result is “binds”. Moreover, in test [10], the “IC50 (Gi2 BRET, pH 6.5)” value was 0.077 µg/ml and 0.514 nM; the “IC50 (Gi2 BRET, pH 7.4)” value is 0.068 µg/ml and 0.452 nM. Besides, the “% of labelled cells” value in test [11] was 97%. Further, in test [18], the “% of labelled cells” value is 92%. Also, in test [12], the “% of internalization at 1 µg/ml mAb (HTRF)” value is 139% and the “% of internalization at 10 µg/ml mAb (HTRF)” value stood at 52%. The “% of labelled cells” value in test [19] was 92%. Also, the “IC50 (read off the curve)” value in [13] is approximately 0.2 µg/mL. Besides, in test [14], the “hCCL1 (100 nM) residual response, Protocol #2, mAb 0.08 µg/mL” value was 94%; the “hCCL1 (100 nM) residual response, Protocol #2, mAb 0.4 µg/mL” value stood at 77%; the “hCCL1 (100 nM) residual response, Protocol #2, mAb 10 µg/mL” value was determined as 31%; the “hCCL1 (100 nM) residual response, Protocol #3, mAb 0.05 µg/mL” value stood at 110%. In [14], the “hCCL1 (100 nM) residual response, Protocol #3, mAb 0.5 µg/mL” value is 76% and the “hCCL1 (100 nM) residual response, Protocol #3, mAb 5 µg/mL” value turned out to be 33%. In addition, the binding result in test [20] is on record as “binds”. The binding result in test [21] was “binds”.

The record behind these values is US20260234276A1 (DOMAIN THERAPEUTICS, published 2026).
